Publication PMC314469, “Protein Interaction Networks by Proteome Peptide Scanning” (PLoS Biology, 2004)

T1: Boi2 SH3 (BOI2_YEAST), P39969
T1 chain: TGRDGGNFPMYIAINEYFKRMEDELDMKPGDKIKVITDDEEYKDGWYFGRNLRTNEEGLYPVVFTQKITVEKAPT

T2: Yhr016c SH3 (YSC84_YEAST), P32793
T2 chain: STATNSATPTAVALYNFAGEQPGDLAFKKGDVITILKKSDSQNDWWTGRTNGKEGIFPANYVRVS

T3: Rvs167 SH3 (RV167_YEAST), P39743
T3 chain: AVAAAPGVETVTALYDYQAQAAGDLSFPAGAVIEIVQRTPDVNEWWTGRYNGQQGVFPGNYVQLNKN

T4: Boi1 SH3 (BOI1_YEAST), P38041
T4 chain: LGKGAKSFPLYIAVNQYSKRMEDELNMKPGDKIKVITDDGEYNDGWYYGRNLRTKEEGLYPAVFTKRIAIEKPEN

T5: Myo5 SH3 (MYO5_YEAST), Q04439
T5 chain: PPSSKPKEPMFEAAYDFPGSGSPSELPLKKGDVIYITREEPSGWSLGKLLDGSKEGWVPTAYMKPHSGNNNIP

T6: Yfr024 SH3 (LSB3_YEAST), P43603
T6 chain: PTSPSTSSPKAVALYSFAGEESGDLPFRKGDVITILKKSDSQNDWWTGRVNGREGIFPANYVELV


Key:
Assay in all cases: SPOT array
[1] = target: T1, Boi2 SH3 (BOI2_YEAST), P39969
[2] = target: Sho1 SH3 (SHO1_YEAST), P40073
Chain of Sho1 SH3 (SHO1_YEAST), P40073 (P40073 295-366): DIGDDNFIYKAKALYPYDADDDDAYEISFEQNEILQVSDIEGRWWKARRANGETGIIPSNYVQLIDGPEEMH

[3] = target: T2, Yhr016c SH3 (YSC84_YEAST), P32793
[4] = target: T3, Rvs167 SH3 (RV167_YEAST), P39743
[5] = target: T4, Boi1 SH3 (BOI1_YEAST), P38041
[6] = target: T5, Myo5 SH3 (MYO5_YEAST), Q04439
[7] = target: T6, Yfr024 SH3 (LSB3_YEAST), P43603

Row | Binder | normalised SPOT signal, Boehringer light units (BLU); mean over the file's lines of this peptide [1] | normalised SPOT signal, Boehringer light units (BLU); mean over the file's lines of this peptide [2] | normalised SPOT signal, Boehringer light units (BLU); mean over the file's lines of this peptide [3] | normalised SPOT signal, Boehringer light units (BLU); mean over the file's lines of this peptide [4] | normalised SPOT signal, Boehringer light units (BLU); mean over the file's lines of this peptide [5] | normalised SPOT signal, Boehringer light units (BLU); mean over the file's lines of this peptide [6] | normalised SPOT signal, Boehringer light units (BLU); mean over the file's lines of this peptide [7]
1 | KNILKVSPVLPSIL [YMR247C 301-314] | 0.8 | 57.8 | 10.1 | 59.5 | 304 | 118 | 0
2 | KKNDRPSPLKPIQH [YKL101W 860-873] | 0 | 67.4 | 44.4 | 49.2 | 2190 | 341 | 254
3 | KLNKRVLPSKPKKS [YLR183C 350-363] | 1.5 | 1390 | 165 | 810 | 309 | 919 | 2670
4 | KMAKKLLPYKPHNS [YBR270C 208-221] | 9.1 | 522 | 37.4 | 37.6 | 156 | 708 | 182
5 | KKVIRNYPGHPEGT [YDR364C 152-165] | 24.6 | 64.4 | 14 | 29 | 582 | 418 | 34.3
6 | KLPKKFPPPTPLLE [YER172C 1312-1325] | 0 | 69.2 | 6 | 10.1 | 821 | 19700 | 39.9
7 | KNIIKYVPWGPPLE [YLR142W 425-438] | 13.9 | 33.3 | 26.6 | 16.2 | 0 | 164 | 1.3
8 | KLKIKILPEQPQLE [YDR407C 838-851] | 0 | 548 | 17.7 | 56.9 | 1350 | 261 | 6
9 | KKKKKNGPGAPQGY [YGR245C 314-327] | 20.2 | 106 | 56.7 | 23.5 | 329 | 329 | 159
10 | KMSAKNTPKHPVDI [YPL082C 209-222] | 42.3 | 102 | 332 | 301 | 1220 | 307 | 978
11 | KNLKKYDPEDPNRR [YPL093W 383-396] | 0 | 76.6 | 71.3 | 121 | 656 | 207 | 45.8

The remaining lines, values ahead:

Row | normalised SPOT signal, Boehringer light units (BLU); mean over the file's lines of this peptide [1] | normalised SPOT signal, Boehringer light units (BLU); mean over the file's lines of this peptide [2] | normalised SPOT signal, Boehringer light units (BLU); mean over the file's lines of this peptide [3] | normalised SPOT signal, Boehringer light units (BLU); mean over the file's lines of this peptide [4] | normalised SPOT signal, Boehringer light units (BLU); mean over the file's lines of this peptide [5] | normalised SPOT signal, Boehringer light units (BLU); mean over the file's lines of this peptide [6] | normalised SPOT signal, Boehringer light units (BLU); mean over the file's lines of this peptide [7] | Binder
12 | 66.4 | 136 | 70.6 | 143 | 725 | 1010 | 291 | KKNPKKSPMGPQGA [YPL214C 146-159]
13 | 27.1 | 126 | 86.9 | 153 | 599 | 916 | 756 | KLYYRHRPQKPVRT [YOL164W 144-157]
14 | 17.3 | 24.2 | 74.5 | 383 | 41.9 | 303 | 1510 | KLVLRNVPILPILN [YBL008W 776-789]
15 | 15.3 | 30.2 | 4.5 | 57.3 | 90.7 | 110 | 30.7 | KLHEKYFPDLPKEV [YDR527W 252-265]
16 | 38 | 102 | 179 | 65.1 | 541 | 523 | 540 | KKNKKKVPLNPLAK [YNL050C 247-260]
